B1: Cryptococcus neoformans AIRs single enzymatic unit (phosphoribosyl-aminoimidazole synthetase), recombinant His-tagged (domain or fragment)
chain: GFGGAFDLAKAGYKDPILVSGTDGVGTKLRVALDHGKHNTVGIDLVAMSVNDLIVQGAEPLYFLDYYACSKLDVPVAADVITGIAEGCLQAGCALIGGETAEMPGMYHGDDYDLAGFAVGVVERAQILPTPDIASGDVLLALSSSGPHSNGFSLIRKIVSLSNLSLHDTAPWDKNTSVGDALLTPTKVYIKPLLPGIKSGLYKGMSHITGGGFTENIPRIFSSASNLGVKLDLTSYSLPAIWKWLMRAGNVEAKEMVRTFNCGVGMIIIVAKDKADAALSSLKENGEEAWVIGEVQEKKGVEYVGLDKFGL
B2: Cryptococcus neoformans GARs single enzymatic unit (phosphoribosyl-glycinamide synthetase), recombinant His-tagged (domain or fragment)
chain: MPEITAFPQPKSDLSILLLGAGGREHALAFKLAQSSRVARIVVCPGNGGTALMGGKVSNLALPWGAPPAFRSIVEWAQKENIDLVVPGPEQPLVDGVEGAFKKVGIPVFGPSPAAAMLEGSKSLSKEFMARHNIPTAAFRSFTSTQYEDAVAYIKSKPFTSGRSVIKASGLAAGKGVLIPETDEEAFAALKSVMVDKEFGDAGDEVVVEEYLSGPEISVLAFSDGYTIVPMPAAQDHKRIGEGDTGLNTGGMGAYAPAPIATKEIMERCVKDVLEPTIKGMREDGYPFVGMLFTGFMITADGPRVLEYNVRFGDPETQALMLLLDEQTDLAEVLLACVERRLDSIKLGYKQGYAVSVVLASEGYPGSYPKGLPMTLNPTPEGVEVFHAGTKRSDNVTVTDGGRVLAVCASAPTLRAAVDLAYSGISQISFQGQTFRRDIAYRALSSEPPAEP
B3: Cryptococcus neoformans bifunctional GARs/AIRs (phosphoribosyl-glycinamide synthetase / phosphoribosyl-aminoimidazole synthetase), recombinant His-tagged (enzyme, UniProt J9VYP5 1-802, looked up)
chain: MPEITAFPQPKSDLSILLLGAGGREHALAFKLAQSSRVARIVVCPGNGGTALMGGKVSNLALPWGAPPAFRSIVEWAQKENIDLVVPGPEQPLVDGVEGAFKKVGIPVFGPSPAAAMLEGSKSLSKEFMARHNIPTAAFRSFTSTQYEDAVAYIKSKPFTSGRSVIKASGLAAGKGVLIPETDEEAFAALKSVMVDKEFGDAGDEVVVEEYLSGPEISVLAFSDGYTIVPMPAAQDHKRIGEGDTGLNTGGMGAYAPAPIATKEIMERCVKDVLEPTIKGMREDGYPFVGMLFTGFMITADGPRVLEYNVRFGDPETQALMLLLDEQTDLAEVLLACVERRLDSIKLGYKQGYAVSVVLASEGYPGSYPKGLPMTLNPTPEGVEVFHAGTKRSDNVTVTDGGRVLAVCASAPTLRAAVDLAYSGISQISFQGQTFRRDIAYRALSSEPPAEPKGLTYAAAGVSVDAGNDLVEAIKPVVKATRRPGADSDIGGFGGAFDLAKAGYKDPILVSGTDGVGTKLRVALDHGKHNTVGIDLVAMSVNDLIVQGAEPLYFLDYYACSKLDVPVAADVITGIAEGCLQAGCALIGGETAEMPGMYHGDDYDLAGFAVGVVERAQILPTPDIASGDVLLALSSSGPHSNGFSLIRKIVSLSNLSLHDTAPWDKNTSVGDALLTPTKVYIKPLLPGIKSGLYKGMSHITGGGFTENIPRIFSSASNLGVKLDLTSYSLPAIWKWLMRAGNVEAKEMVRTFNCGVGMIIIVAKDKADAALSSLKENGEEAWVIGEVQEKKGVEYVGLDKFGL

Target: the molecule itself
Test: mass photometry

Q: B1 was tested. Which “stoichiometry N” value did it give?
A: Its value is 2.

Q: With B2 as the protein, how does the “stoichiometry N” value read?
A: The value was 2.

Q: B3 was tested. Which “stoichiometry N” value did it give?
A: Its value is 2.

Source: paper PMC8449271 (The Journal of Biological Chemistry, 2021)
